Where a chain is given by its changes, count along the chain named. In names and notes the source's numbering stands.
B1: target 1 insG 3' of 11,insA 3' of 3 (mixed)
RNA 1: CACCCGUGCAAAAAUGCAGGGGUCUAAAACUGAGCGGAUAACCUCUCUAUGG
RNA 2: GGGAAUGGAUCCACAUCUACGAAUUCGUACCAUAGAGAGGUGUAUCCGCUACACCGAGAUCGGAAGAGCACACGU
B2: target 1 insA 3' of 15,insA 3' of 4 (mixed)
RNA 1: B1 RNA 1
RNA 2: B1 RNA 2 with G39A, U41G, G42U, U50A, A51U
B3: target 1 U8C,U11A (mixed)
RNA 1: B1 RNA 1
RNA 2: GGGAAUGGAUCCACAUCUACGAAUUCGUACCAUAGAGAGGAUACCCGCUCACCGAGAUCGGAAGAGCACACGU
B4: target 1 insU 3' of 17,insA 3' of 17 (mixed)
RNA 1: B1 RNA 1
RNA 2: GGGAAUGGAUCCACAUCUACGAAUUCGUACCAUAGUAAGAGGUUAUCCGCUCACCGAGAUCGGAAGAGCACACGU
B5: target 1 insC 3' of 10,insA 3' of 3 (mixed)
RNA 1: B1 RNA 1
RNA 2: B1 RNA 2 with G42U, U43C
B6: target 1 A9C,A18U (mixed)
RNA 1: B1 RNA 1
RNA 2: B3 RNA 2 with A34U, A41U, A43C, C44U
B7: target 1 C4U,G12U (mixed)
RNA 1: B1 RNA 1
RNA 2: B3 RNA 2 with G40U, A41U, C44U, C48U
B8: target 1 C2U,A18C (mixed)
RNA 1: B1 RNA 1
RNA 2: B3 RNA 2 with A34C, A41U, C44U, C50U
B9: target 1 U8G,G17U (mixed)
RNA 1: B1 RNA 1
RNA 2: B3 RNA 2 with G35U, A41U, C44G
B10: target 1 C7U,C21U (mixed)
RNA 1: B1 RNA 1
RNA 2: B3 RNA 2 with C31U, A41U, C44U, C45U
B11: target 1 insG 3' of 18,insA 3' of 4 (mixed)
RNA 1: B1 RNA 1
RNA 2: B1 RNA 2 with A36G, G37A, A38G, G39A, U41G, G42U, U50A, A51U
B12: target 1 insA 3' of 13,insU 3' of 12 (mixed)
RNA 1: B1 RNA 1
RNA 2: B4 RNA 2 with U36A, A37G, G42U
B13: target 1 C4A,C22A (mixed)
RNA 1: B1 RNA 1
RNA 2: B3 RNA 2 with C30A, A41U, C44U, C48A
B14: target 1 insU 3' of 14,insC 3' of 12 (mixed)
RNA 1: B1 RNA 1
RNA 2: B4 RNA 2 with U36A, A37G, G39U, A40G, G42C
B15: target 1 insA 3' of 21,insG 3' of 20 (mixed)
RNA 1: B1 RNA 1
RNA 2: B4 RNA 2 with U33A, A34G, G35U, U36A, A37G
B16: target 1 C7A,U8C (mixed)
RNA 1: B1 RNA 1
RNA 2: B3 RNA 2 with A41U, C45A
B17: target 1 G5C,G15C (mixed)
RNA 1: B1 RNA 1
RNA 2: B3 RNA 2 with G37C, A41U, C44U, G47C
B18: target 1 C2A,U10A (mixed)
RNA 1: B1 RNA 1
RNA 2: B3 RNA 2 with A41U, U42A, C44U, C50A
B19: target 1 insU 3' of 18,insU 3' of 5 (mixed)
RNA 1: B1 RNA 1
RNA 2: GGGAAUGGAUCCACAUCUACGAAUUCGUACCAUAUGAGAGGUUAUCCGUCUCACCGAGAUCGGAAGAGCACACGU
B20: target 1 insG 3' of 14,insG 3' of 3 (mixed)
RNA 1: B1 RNA 1
RNA 2: B1 RNA 2 with U41G, G42U, A51G
B21: target 1 C2G,G15U (mixed)
RNA 1: B1 RNA 1
RNA 2: B3 RNA 2 with G37U, A41U, C44U, C50G
B22: target 1 A1G,A18G (mixed)
RNA 1: B1 RNA 1
RNA 2: B3 RNA 2 with A34G, A41U, C44U, A51G
B23: target 1 C6U,G15U (mixed)
RNA 1: B1 RNA 1
RNA 2: B3 RNA 2 with G37U, A41U, C44U, C46U
B24: target 1 G12A,G15U (mixed)
RNA 1: B1 RNA 1
RNA 2: B3 RNA 2 with G37U, G40A, A41U, C44U
B25: target 1 insG 3' of 10,insG 3' of 3 (mixed)
RNA 1: B1 RNA 1
RNA 2: B1 RNA 2 with G42U, U43G, A51G
B26: target 1 insA 3' of 12,insG 3' of 3 (mixed)
RNA 1: B1 RNA 1
RNA 2: B1 RNA 2 with U41A, G42U, A51G
B27: target 1 insU 3' of 17,insC 3' of 15 (mixed)
RNA 1: B1 RNA 1
RNA 2: B4 RNA 2 with A38G, G39C
B28: target 1 U3A,G12A (mixed)
RNA 1: B1 RNA 1
RNA 2: B3 RNA 2 with G40A, A41U, C44U, U49A
B29: target 1 insA 3' of 10,insU 3' of 2 (mixed)
RNA 1: B1 RNA 1
RNA 2: B1 RNA 2 with G42U, U43A, A51C, C52U
B30: target 1 insU 3' of 15,insG 3' of 2 (mixed)
RNA 1: B1 RNA 1
RNA 2: B1 RNA 2 with A38U, G39A, U41G, G42U, A51C, C52G
B31: target 1 A18U,C21U (mixed)
RNA 1: B1 RNA 1
RNA 2: B3 RNA 2 with C31U, A34U, A41U, C44U
B32: target 1 insC 3' of 12,insU 3' of 9 (mixed)
RNA 1: B1 RNA 1
RNA 2: B1 RNA 2 with U41C, G42U, C46U, G48C, C49G, U50C, A51U
B33: target 1 insG 3' of 14,insA 3' of 2 (mixed)
RNA 1: B1 RNA 1
RNA 2: B1 RNA 2 with U41G, G42U, A51C, C52A
B34: target 1 insG 3' of 14,insC 3' of 1 (mixed)
RNA 1: B1 RNA 1
RNA 2: B1 RNA 2 with U41G, G42U, A51C, C52A, A53C
B35: target 1 U3A,A20U (mixed)
RNA 1: B1 RNA 1
RNA 2: B3 RNA 2 with A32U, A41U, C44U, U49A

biological target: T1, EsCas13d, nuclease-dead (Eubacterium siraeum, UniProt B0MS50, R295A;H300A;R849A;H854A); assay: crRNA (strand 1, pre-loaded); Mg2+; 40 mM Tris-HCl pH 7.5, 150 mM NaCl, 6 mM MgCl2, 1 mM DTT, 0.1% Tween-20, 0.2 mg/ml BSA; 25 C; 10 min per concentration, then washed; details: tags: His6-TwinStrep-SUMO cleaved; N-terminal SNAP kept (SNAP-Surface 488); label: 3' end held by stalled T7 RNA polymerase
T1 sequence: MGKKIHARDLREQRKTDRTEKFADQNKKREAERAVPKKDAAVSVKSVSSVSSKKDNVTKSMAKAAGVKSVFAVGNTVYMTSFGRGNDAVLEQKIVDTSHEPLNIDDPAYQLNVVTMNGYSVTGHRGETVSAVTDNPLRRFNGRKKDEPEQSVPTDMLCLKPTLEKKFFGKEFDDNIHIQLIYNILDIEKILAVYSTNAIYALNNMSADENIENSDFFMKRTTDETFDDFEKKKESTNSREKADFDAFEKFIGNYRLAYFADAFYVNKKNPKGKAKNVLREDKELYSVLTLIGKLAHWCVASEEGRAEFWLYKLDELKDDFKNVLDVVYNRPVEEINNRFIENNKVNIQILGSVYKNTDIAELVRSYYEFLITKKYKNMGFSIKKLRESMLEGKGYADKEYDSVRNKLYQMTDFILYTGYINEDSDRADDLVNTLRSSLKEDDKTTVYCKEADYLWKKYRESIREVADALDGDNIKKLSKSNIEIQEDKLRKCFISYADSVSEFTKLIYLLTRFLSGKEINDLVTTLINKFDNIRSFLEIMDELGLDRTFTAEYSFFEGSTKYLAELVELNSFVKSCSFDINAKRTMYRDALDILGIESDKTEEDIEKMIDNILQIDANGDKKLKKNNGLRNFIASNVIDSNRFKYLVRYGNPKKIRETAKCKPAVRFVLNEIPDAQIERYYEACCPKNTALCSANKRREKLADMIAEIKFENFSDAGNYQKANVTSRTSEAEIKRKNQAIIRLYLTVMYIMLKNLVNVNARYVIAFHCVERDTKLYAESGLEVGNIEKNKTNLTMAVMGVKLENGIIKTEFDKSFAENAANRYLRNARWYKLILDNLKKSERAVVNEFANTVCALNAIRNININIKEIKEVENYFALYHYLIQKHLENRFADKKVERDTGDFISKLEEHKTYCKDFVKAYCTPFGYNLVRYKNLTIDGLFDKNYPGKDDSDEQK

**Q.** With B1 as the binder, how does the Kd read?
**A.** 17.5 ± 1.2 nM

**Q.** Which Kd does the source give for B2 here?
**A.** 7.7 ± 0.9 nM

**Q.** For B3, which Kd is on record?
**A.** 32.5 ± 3.2 nM

**Q.** With B4 as the binder, how does the Kd read?
**A.** 30.5 ± 2.2 nM

**Q.** B5 was tested. Which Kd did it give?
**A.** 12.9 ± 0.6 nM

**Q.** For B6, which Kd is on record?
**A.** 63 ± 10 nM

**Q.** B7 was tested. Which Kd did it give?
**A.** 36 ± 8 nM

**Q.** Which Kd does the source give for B8 here?
**A.** 48.9 ± 2.9 nM

**Q.** With B9 as the binder, how does the Kd read?
**A.** 91 ± 14 nM

**Q.** B10 was tested. Which Kd did it give?
**A.** 6 ± 0.4 nM

**Q.** Which Kd does the source give for B11 here?
**A.** 43 ± 5 nM

**Q.** How did the Kd turn out when B12 was run?
**A.** 4.2 ± 0.5 nM

**Q.** With B13 as the binder, how does the Kd read?
**A.** 5.7 ± 0.8 nM

**Q.** For B14, which Kd is on record?
**A.** 50 ± 10 nM

**Q.** How did the Kd turn out when B15 was run?
**A.** 24 ± 4 nM

**Q.** Which Kd does the source give for B16 here?
**A.** 9 ± 0.4 nM

**Q.** How did the Kd turn out when B17 was run?
**A.** 38 ± 5 nM

**Q.** How did the Kd turn out when B18 was run?
**A.** 13.9 ± 0.8 nM

**Q.** For B19, which Kd is on record?
**A.** 48 ± 5 nM

**Q.** B20 was tested. Which Kd did it give?
**A.** 7.9 ± 0.4 nM

**Q.** With B21 as the binder, how does the Kd read?
**A.** 33 ± 13 nM

**Q.** B22 was tested. Which Kd did it give?
**A.** 74 ± 21 nM

**Q.** B23 was tested. Which Kd did it give?
**A.** 32.9 ± 1.9 nM

**Q.** With B24 as the binder, how does the Kd read?
**A.** 18.7 ± 2.5 nM

**Q.** How did the Kd turn out when B25 was run?
**A.** 28.4 ± 2.8 nM

**Q.** With B26 as the binder, how does the Kd read?
**A.** 18.7 ± 1.6 nM

**Q.** How did the Kd turn out when B27 was run?
**A.** 26.1 ± 1.8 nM

**Q.** How did the Kd turn out when B28 was run?
**A.** 4.12 ± 0.33 nM

**Q.** Which Kd does the source give for B29 here?
**A.** 13.8 ± 0.7 nM

**Q.** With B30 as the binder, how does the Kd read?
**A.** 9.7 ± 0.7 nM

**Q.** With B31 as the binder, how does the Kd read?
**A.** 6.5 ± 0.32 nM

**Q.** How did the Kd turn out when B32 was run?
**A.** 14 ± 2.2 nM

**Q.** For B33, which Kd is on record?
**A.** 13.3 ± 1.6 nM

**Q.** Which Kd does the source give for B34 here?
**A.** 10.4 ± 0.4 nM

**Q.** For B35, which Kd is on record?
**A.** 44 ± 4 nM

Source: publication PMC10786891, “Massively parallel profiling of RNA-targeting CRISPR-Cas13d”
